Data as given in patent publication US20190031760A1 (Hoffmann-La Roche, published 2019).

Legend:
Assay in all cases: SPR (ProteOn XPR36), antigen captured by neutravidin, Fab as analyte;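 as to Kd: antigen surface loaded to 200, 400 or 800 RU in PBST pH 7.4, sensorgrams referenced against a buffer-only in-line channel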;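 as to koff: antigen surface loaded to 200, 400 or 800 RU in PBST pH 7.4, sensorgrams referenced against a buffer-only in-line channel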;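 as to kon: antigen surface loaded to 200, 400 or 800 RU in PBST pH 7.4, sensorgrams referenced against a buffer-only in-line channel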
[1] = molecular target: T1, avi-Fc-human ASGPR H1 stalk CRD (human, biotinylated at the N-terminal Avi tag)
T1 construct: Homodimeric (bivalent) Fc fusion of the human ASGPR H1 ECD (stalk and CRD); also called huASGPR H1 stalk CRD; Fc-stalk-CRD

[2] = molecular target: T2, avi-Fc-human CLEC10A stalk CRD (human, biotinylated at the N-terminal Avi tag)
T2 construct: Homodimeric Fc fusion of the human CLEC10A ECD, closest homologue of ASGPR H1, used as specificity control; also called huCLEC10A stalk CRD
T2 sequence (chain, as listed by the source limits assumed): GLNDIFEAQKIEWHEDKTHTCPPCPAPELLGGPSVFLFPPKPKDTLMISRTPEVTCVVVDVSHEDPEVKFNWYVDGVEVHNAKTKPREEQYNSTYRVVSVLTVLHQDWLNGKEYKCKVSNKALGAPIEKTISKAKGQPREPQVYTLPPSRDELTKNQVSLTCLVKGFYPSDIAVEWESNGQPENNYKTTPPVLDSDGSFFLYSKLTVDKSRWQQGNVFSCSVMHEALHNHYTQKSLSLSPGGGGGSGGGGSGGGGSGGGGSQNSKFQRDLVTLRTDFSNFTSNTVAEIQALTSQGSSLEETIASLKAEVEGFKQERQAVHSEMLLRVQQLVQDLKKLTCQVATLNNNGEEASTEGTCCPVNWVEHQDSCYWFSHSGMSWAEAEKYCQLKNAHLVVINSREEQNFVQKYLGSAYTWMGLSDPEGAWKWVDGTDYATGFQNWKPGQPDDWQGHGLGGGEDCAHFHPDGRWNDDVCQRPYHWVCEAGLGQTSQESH

[3] = molecular target: T3, avi-Fc-cynomolgus ASGPR H1 stalk (cynomolgus, biotinylated at the N-terminal Avi tag)
T3 construct: Homodimeric Fc fusion (wild type Fc); also called cyASGPR H1 stalk
T3 sequence (chain, as listed by the source limits assumed): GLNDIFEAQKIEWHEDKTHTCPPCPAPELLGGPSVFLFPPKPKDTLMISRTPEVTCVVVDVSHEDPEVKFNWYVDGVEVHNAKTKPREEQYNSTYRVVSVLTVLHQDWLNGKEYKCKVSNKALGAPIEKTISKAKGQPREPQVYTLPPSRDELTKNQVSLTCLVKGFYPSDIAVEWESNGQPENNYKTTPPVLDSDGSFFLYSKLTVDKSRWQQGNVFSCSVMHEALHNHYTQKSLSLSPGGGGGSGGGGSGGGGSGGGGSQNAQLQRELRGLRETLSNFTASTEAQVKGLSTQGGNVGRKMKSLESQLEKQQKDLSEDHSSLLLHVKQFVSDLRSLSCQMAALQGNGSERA

[4] = molecular target: T4, avi-Fc-human ASGPR H1 stalk (human, biotinylated at the N-terminal Avi tag)
T4 construct: Homodimeric Fc fusion (wild type Fc); also called huASGPR H1 stalk; Fc-stalk
T4 sequence (chain, as listed by the source limits assumed): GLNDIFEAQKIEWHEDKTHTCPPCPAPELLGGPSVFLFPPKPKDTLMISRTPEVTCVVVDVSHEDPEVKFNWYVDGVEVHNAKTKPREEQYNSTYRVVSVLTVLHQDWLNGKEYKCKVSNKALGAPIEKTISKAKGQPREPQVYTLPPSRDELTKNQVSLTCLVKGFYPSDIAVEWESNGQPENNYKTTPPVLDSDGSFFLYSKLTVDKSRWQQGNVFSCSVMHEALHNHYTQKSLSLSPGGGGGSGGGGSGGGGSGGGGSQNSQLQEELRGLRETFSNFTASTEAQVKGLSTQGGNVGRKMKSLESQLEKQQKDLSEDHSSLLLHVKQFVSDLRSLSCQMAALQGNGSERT

B1: 5A4 Fab (Fab, V domains shown)
VH: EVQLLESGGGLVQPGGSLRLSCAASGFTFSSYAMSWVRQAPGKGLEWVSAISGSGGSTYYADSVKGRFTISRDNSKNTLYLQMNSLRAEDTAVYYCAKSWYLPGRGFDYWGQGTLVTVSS
VL: SSELTQDPAVSVALGQTVRITCQGDSLRSYYASWYQQKPGQAPVLVIYGKNNRPSGIPDRFSGSSSGNTASLTITGAQAEDEADYYCNSRLRSGKMVVFGGGTKLTVL
notes: Human lambda Fab from E. coli
binding result [1]: no binding
binding result [2]: no binding
Kd [3]: 3.76 nM
koff [3]: 0.0014 s⁻¹
kon [3]: 372000 M⁻¹ s⁻¹
Kd [4]: 4.3 nM
koff [4]: 0.00105 s⁻¹
kon [4]: 244000 M⁻¹ s⁻¹
